The values below come from paper doi:10.1101/2024.08.08.606885.

What all share (assay): BLI; […]; 10x kinetics buffer, […]; global fit, 1:1 binding model; […]
In general terms: Biolayer interferometry detects binding as a change in optical thickness at a sensor tip.

The target of assay [1] is SARS-CoV-2 BA.2.12.1 RBD (SARS-CoV-2) (UniProt P0DTC2).
For assay [2], the target named is SARS-CoV-2 BA.2.75.2 RBD (SARS-CoV-2) (UniProt P0DTC2).
Assay [3] deals with SARS-CoV-2 BA.2.86 RBD (SARS-CoV-2) (UniProt P0DTC2).
In assay [4] the target is SARS-CoV-2 BA.5 RBD (SARS-CoV-2) (UniProt P0DTC2).
The target in assay [5] is SARS-CoV-2 BQ.1.1 RBD (SARS-CoV-2) (UniProt P0DTC2).
Assay [6] has as its target SARS-CoV-2 Delta RBD (SARS-CoV-2) (UniProt P0DTC2).
Assay [7] addresses SARS-CoV-2 Wuhan-Hu-1 RBD (SARS-CoV-2) (UniProt P0DTC2).
Assay [8] has as its target SARS-CoV-2 XBB.1.5 RBD (SARS-CoV-2) (UniProt P0DTC2).

Broadly, the Kd is the concentration at which binding is half-saturated. A lower Kd goes with tighter binding. The koff is the first-order rate constant of dissociation. A higher koff goes with a short-lived complex. What is called kon is the second-order rate constant of association. A low value points to slower complex formation. Take “TRI2-2 homotrimeric miniprotein inhibitor (designed binder)”: the dissociation constant (Kd) worked out at 0.851 nM in assay [1]; 0.542 nM in assay [2]; 0.388 nM in assay [3]; 0.0306 nM in assay [4]; 0.21 nM in assay [5]; 1.14 pM in assay [6]. The values for the Kd in assay [7] and in assay [8] were 1.21 pM and 0.658 nM, respectively. In addition, the koff in assay [1] amounted to 0.000117 s⁻¹; in assay [2], 8.93e-05 s⁻¹; in assay [3], 0.000131 s⁻¹; in assay [4], 9.92e-06 s⁻¹; in assay [5] it was 3.36e-05 s⁻¹; in assay [6], 2.95e-07 s⁻¹. Moreover, the koff in assay [7] was 3.46e-07 s⁻¹; in assay [8], 0.000105 s⁻¹. The association rate constant (kon) in assay [1] was found to be 137000 M⁻¹ s⁻¹; in assay [2], 165000 M⁻¹ s⁻¹; in assay [3] it was 339000 M⁻¹ s⁻¹; in assay [4] it was 325000 M⁻¹ s⁻¹; in assay [5], 160000 M⁻¹ s⁻¹; in assay [6], 259000 M⁻¹ s⁻¹. The association rate constant (kon) in assay [7] is 286000 M⁻¹ s⁻¹; in assay [8], 160000 M⁻¹ s⁻¹.
